Source: patent publication US7192735
“And” between values parts separate entries of the source, which are not always exact repeats. Identical values can stand only once.

What was measured:
[1] = biological target: EntF (E. coli enterobactin synthetase component), apo form (UniProt P11454)
[2] = tested on: Rhizobial NodF (wild-type)
[3] = tested on: Lactobacillus casei D-Alanyl carrier protein (apo-Dcp)
[4] = tested on: Streptomycete ACP involved in tetracenomycin polyketide antibiotic biosynthesis (apo-form)
[5] = biological target: E. coli fatty acid synthase apo-acyl carrier protein (apo-ACP) (UniProt P0A6A8)
E. coli fatty acid synthase apo-acyl carrier protein (apo-ACP), sequence (P0A6A8 2-78): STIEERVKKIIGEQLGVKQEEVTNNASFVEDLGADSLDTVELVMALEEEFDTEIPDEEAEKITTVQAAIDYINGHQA

[6] = tested on: Streptomycete ACP involved in frenolicin polyketide antibiotic biosynthesis (apo-form)
[7] = tested on: Streptomycete ACP involved in granaticin polyketide antibiotic biosynthesis (apo-form)
[8] = tested on: Streptomycete ACP involved in oxytetracycline polyketide antibiotic biosynthesis (apo-form)
[9] = tested on: ACP-NodF chimera
[10] = biological target: T1, His6-SrfB1 (N-terminal hexa-histidine-tagged SrfB1 valine-activating domain of surfactin synthetase) (UniProt Q04747)
T1 sequence: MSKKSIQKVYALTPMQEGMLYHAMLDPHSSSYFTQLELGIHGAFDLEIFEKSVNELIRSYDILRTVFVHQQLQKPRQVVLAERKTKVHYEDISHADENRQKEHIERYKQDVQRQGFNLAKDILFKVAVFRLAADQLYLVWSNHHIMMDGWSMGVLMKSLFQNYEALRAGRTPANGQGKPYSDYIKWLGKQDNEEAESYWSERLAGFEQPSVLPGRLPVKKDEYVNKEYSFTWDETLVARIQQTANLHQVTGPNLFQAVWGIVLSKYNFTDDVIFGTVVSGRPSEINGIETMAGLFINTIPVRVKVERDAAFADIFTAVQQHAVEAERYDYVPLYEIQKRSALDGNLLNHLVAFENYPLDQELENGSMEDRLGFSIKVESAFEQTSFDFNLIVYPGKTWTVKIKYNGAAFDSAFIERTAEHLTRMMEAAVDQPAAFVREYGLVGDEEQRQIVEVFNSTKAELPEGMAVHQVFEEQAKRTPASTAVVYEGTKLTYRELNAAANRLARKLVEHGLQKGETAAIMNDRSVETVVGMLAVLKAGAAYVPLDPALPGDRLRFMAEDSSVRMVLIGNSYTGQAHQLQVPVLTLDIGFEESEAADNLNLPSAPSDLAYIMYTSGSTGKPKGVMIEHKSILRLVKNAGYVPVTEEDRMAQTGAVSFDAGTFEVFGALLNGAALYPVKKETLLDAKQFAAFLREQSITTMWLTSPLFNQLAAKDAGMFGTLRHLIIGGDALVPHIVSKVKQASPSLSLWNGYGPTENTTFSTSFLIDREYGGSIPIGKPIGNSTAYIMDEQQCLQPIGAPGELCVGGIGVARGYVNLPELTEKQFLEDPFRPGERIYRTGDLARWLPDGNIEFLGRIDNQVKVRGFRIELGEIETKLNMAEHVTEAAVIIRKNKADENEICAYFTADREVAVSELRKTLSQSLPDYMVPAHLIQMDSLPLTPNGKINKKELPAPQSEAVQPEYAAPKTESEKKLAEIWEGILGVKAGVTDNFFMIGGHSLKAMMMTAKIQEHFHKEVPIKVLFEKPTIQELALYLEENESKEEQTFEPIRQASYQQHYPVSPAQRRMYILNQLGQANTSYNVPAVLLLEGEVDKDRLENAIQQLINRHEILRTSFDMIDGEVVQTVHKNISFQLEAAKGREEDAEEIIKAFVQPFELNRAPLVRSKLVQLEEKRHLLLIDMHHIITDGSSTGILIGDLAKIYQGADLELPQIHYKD

[11] = tested on: His6-peptidyl carrier protein (PCP domain of TycA, hexa-histidine tagged)
[12] = biological target: His6-SrfB1 (N-terminal hexa-histidine-tagged SrfB1 valine-activating domain of surfactin synthetase) (Bacillus) (UniProt Q04747); experiment: cell-based or functional assay

EntF (E. coli enterobactin synthetase component), apo form, sequence (P11454 whole entry): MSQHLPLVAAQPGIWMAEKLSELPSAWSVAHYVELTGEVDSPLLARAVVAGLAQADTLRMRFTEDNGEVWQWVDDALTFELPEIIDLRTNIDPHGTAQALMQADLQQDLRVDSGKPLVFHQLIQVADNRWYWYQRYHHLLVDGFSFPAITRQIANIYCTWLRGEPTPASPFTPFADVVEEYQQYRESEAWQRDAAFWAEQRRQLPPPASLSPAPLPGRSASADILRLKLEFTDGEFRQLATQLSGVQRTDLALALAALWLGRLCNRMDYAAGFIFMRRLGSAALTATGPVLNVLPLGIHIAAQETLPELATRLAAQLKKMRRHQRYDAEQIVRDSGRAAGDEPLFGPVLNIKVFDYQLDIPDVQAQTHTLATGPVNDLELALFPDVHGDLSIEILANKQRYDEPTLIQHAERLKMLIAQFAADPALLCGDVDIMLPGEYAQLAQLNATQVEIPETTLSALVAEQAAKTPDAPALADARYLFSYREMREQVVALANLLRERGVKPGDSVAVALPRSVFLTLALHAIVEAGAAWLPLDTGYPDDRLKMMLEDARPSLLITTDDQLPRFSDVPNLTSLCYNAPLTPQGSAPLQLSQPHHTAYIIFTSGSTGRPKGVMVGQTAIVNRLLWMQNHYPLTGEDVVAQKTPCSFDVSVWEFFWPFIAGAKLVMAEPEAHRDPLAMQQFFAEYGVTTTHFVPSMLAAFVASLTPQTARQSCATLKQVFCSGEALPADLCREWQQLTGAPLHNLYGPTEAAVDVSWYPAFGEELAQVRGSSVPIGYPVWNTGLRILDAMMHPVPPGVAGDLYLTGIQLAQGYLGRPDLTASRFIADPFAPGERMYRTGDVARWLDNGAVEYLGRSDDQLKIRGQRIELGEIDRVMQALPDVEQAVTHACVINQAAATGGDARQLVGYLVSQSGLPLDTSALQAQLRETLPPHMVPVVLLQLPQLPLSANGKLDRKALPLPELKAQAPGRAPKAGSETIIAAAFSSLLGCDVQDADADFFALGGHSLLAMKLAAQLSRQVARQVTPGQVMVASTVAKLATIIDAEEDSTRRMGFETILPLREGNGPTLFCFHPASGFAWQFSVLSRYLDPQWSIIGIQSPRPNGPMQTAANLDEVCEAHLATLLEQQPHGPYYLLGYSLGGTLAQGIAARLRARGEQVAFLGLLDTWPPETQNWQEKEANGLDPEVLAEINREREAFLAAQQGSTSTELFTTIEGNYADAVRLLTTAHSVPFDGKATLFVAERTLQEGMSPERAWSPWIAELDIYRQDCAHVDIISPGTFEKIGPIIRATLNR

## EntD (E. coli), recombinant from pET28b-entD
[1]
  incorporation of [3H]-4'-Ppant: EntD is capable of phosphopantetheinylating an EntF fragment
  time course of incorporation of radiolabel into EntF: EntF is modified effectively by EntD (100 nM)

## Escherichia coli holo-acyl carrier protein synthase (ACPS)
[2]
  % conversion: 47% conversion
  [3H]phosphopantetheine incorporated (+ ACPS): 236 000 dpm
[3]
  [^3H] holo-Dcp formed versus apo-Dcp: the amount of holo-Dcp formed increases linearly with the amount of apo-Dcp in the reaction
  radioactivity incorporated into the protein fraction (Dcp + ACPS): 0.98 × 10^6 (±0.95%) and 1.04 × 10^6 (±0.93%) and 1.00 × 10^6 (±0.77%)
[4]
  phosphopantetheinylation: E. coli ACPS modifies the apo-form of Streptomycete ACPs involved in frenolicin, granaticin, oxytetracycline, and tetracenomycin polyketide antibiotic biosynthesis
[5]
  % conversion: 46% conversion
  Km value for apo-ACP: we were able to assign an upper limit of ˜1 µM to the Km value for apo-ACP
  [3H]phosphopantetheine incorporated (+ ACPS): 1 320 000 dpm
  apparent kcat: An apparent kcat value of about 10 min^-1 was measured at saturating CoA and 50 µM apo-ACP
  radioactivity incorporated into the protein fraction (ACP + ACPS): 2.13 × 10^6 (±.65%) and 2.20 × 10^6 (±.64%) and 2.21 × 10^6 (±.63%)
  time course of holo-ACP formation: almost exclusive modification of apo-ACP by ACPS
[6]
  phosphopantetheinylation: E. coli ACPS modifies the apo-form of Streptomycete ACPs involved in frenolicin, granaticin, oxytetracycline, and tetracenomycin polyketide antibiotic biosynthesis
[1]
  time course of incorporation of radiolabel into EntF: EntF undergoes almost no modification in the presence of 15-fold higher concentrations of ACPS and o195
[7]
  phosphopantetheinylation: E. coli ACPS modifies the apo-form of Streptomycete ACPs involved in frenolicin, granaticin, oxytetracycline, and tetracenomycin polyketide antibiotic biosynthesis
[8]
  phosphopantetheinylation: E. coli ACPS modifies the apo-form of Streptomycete ACPs involved in frenolicin, granaticin, oxytetracycline, and tetracenomycin polyketide antibiotic biosynthesis
[9]
  [3H]phosphopantetheine incorporated (+ ACPS): 122 000 dpm

## Sfp (B. subtilis phosphopantetheinyl transferase)
[5]
  phosphopantetheinylation: Sfp efficiently catalyzes modification of all three substrates
[10]
  incorporation of [3H]-4'-Ppant: Sfp is capable of phosphopantetheinylating an SfrB1 fragment
[11]
  [3H]-4'-Ppant incorporated versus substrate concentration: Sfp is capable of phosphopantetheinylating a substrate, such as PCP, in a wide range of concentrations
  phosphopantetheinylation: Sfp efficiently catalyzes modification of all three substrates

## Sfp (B. subtilis phosphopantetheinyl transferase) (enzyme)
[12]
  level of [^14C]-L-valine-holo-SrfB1 covalent complex formed: 14 fold
